Data from article PMC9482650, “Quantitative fragmentomics allow affinity mapping of interactomes” (Nature Communications, 2022).

T1: MPDZ_10, O75970
T1 sequence (O75970 1624-1722, limits assumed, looked up): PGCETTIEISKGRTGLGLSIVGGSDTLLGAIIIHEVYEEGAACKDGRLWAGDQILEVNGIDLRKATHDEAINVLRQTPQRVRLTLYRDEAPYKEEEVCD

T2: DLG3_2, Q92796
T2 sequence (Q92796 221-321, limits assumed, looked up): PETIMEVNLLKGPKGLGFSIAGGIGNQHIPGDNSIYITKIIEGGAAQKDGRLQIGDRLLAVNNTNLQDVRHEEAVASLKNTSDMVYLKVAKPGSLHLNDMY

T3: DLG3_1, Q92796
T3 sequence (Q92796 125-227, limits assumed, looked up): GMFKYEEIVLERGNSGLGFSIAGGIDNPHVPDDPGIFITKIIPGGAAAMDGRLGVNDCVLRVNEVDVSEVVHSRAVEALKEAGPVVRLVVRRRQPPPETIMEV

T4: LIN7B, Q9HAP6
T4 sequence (Q9HAP6 88-185, limits assumed, looked up): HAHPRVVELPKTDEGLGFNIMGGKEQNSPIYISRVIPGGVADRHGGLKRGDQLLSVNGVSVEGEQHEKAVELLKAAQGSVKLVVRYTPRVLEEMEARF

T5: MPDZ_12, O75970
T5 sequence (O75970 1857-1958, limits assumed, looked up): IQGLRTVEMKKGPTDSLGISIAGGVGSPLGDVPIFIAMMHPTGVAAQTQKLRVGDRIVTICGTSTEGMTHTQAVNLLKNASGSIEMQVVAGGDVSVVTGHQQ

T6: NHERF3_3, Q5T2W1
T6 sequence (Q5T2W1 238-333, limits assumed, looked up): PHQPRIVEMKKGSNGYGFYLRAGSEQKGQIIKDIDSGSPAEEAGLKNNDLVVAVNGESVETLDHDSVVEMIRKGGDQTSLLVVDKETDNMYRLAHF

T7: SIPA1L2, Q9P2F8
T7 sequence (Q9P2F8 945-1036, limits assumed, looked up): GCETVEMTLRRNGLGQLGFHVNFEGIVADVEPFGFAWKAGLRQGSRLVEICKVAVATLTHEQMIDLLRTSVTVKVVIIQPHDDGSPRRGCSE

T8: MPDZ_5, O75970
T8 sequence (O75970 695-796, limits assumed, looked up): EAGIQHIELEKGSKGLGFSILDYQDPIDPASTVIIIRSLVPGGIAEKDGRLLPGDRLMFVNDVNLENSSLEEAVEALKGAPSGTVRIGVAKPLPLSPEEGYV

T9: DFNB31_1, Q9P202
T9 sequence (Q9P202 135-233, limits assumed, looked up): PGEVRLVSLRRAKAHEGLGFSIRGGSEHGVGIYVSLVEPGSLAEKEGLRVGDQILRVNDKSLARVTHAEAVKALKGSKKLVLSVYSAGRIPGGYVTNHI

T10: SNTG2, Q9NY99
T10 sequence (Q9NY99 68-166, limits assumed, looked up): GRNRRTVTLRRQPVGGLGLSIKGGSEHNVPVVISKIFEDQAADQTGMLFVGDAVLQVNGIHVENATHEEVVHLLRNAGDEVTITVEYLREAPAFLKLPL

T11: PDZRN3_1, Q9UPQ7
T11 sequence (Q9UPQ7 244-349, limits assumed, looked up): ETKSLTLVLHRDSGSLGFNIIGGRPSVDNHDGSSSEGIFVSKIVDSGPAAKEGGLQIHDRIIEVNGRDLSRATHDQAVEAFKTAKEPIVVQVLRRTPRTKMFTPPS

T12: RAPGEF6, Q8TEU7
T12 sequence (Q8TEU7 525-625, limits assumed, looked up): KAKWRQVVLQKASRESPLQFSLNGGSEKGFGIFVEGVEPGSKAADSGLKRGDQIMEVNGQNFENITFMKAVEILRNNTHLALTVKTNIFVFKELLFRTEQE


What follows are binders tested against T1, MPDZ_10, O75970 (assay: holdup assay). Conditions: plain residues with an end cap or a label only (N-terminal biotin on a linker: ado-ado).
Parameters: key: below the threshold = too weak to quantify, mostly under pKd 3.1 to 4

Q: How did the pKd turn out when EDPRVEVTQF [SLC22A9, Q8IVM8] was run?
A: Its pKd is “below the threshold”.

What follows are binders tested against AHNAK1, Q09666 (assay: holdup assay). Conditions: plain residues with an end cap or a label only (N-terminal biotin on a linker: ado-ado).
Parameters: key: below the threshold = too weak to quantify, mostly under pKd 3.1 to 4

Sequence of AHNAK1, Q09666 (Q09666 4-100): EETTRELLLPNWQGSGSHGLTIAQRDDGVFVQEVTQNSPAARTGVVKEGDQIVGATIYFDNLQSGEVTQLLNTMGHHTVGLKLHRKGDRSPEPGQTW

Q: Which pKd does the source give for EDPRVEVTQF [SLC22A9, Q8IVM8] here?
A: Its pKd is “below the threshold”.

What follows are binders tested against T2, DLG3_2, Q92796 (assay: holdup assay). Conditions: plain residues with an end cap or a label only (N-terminal biotin on a linker: ado-ado).
Parameters: key: below the threshold = too weak to quantify, mostly under pKd 3.1 to 4

Q: How did the pKd turn out when EDPRVEVTQF [SLC22A9, Q8IVM8] was run?
A: Its pKd is 4.17.

These binders were tested against Inadl_5, Q8NI35 (assay: holdup assay). Conditions: plain residues with an end cap or a label only (N-terminal biotin on a linker: ado-ado).
Parameters: key: below the threshold = too weak to quantify, mostly under pKd 3.1 to 4

Sequence of Inadl_5, Q8NI35 (Q8NI35 673-780): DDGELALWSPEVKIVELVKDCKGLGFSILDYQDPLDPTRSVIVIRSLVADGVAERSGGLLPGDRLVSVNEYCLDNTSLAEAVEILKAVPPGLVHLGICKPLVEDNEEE

Q: For EDPRVEVTQF [SLC22A9, Q8IVM8], which pKd is on record?
A: The pKd was “below the threshold”.

These binders were tested against SCRIB_1, Q14160 (assay: holdup assay). Conditions: plain residues with an end cap or a label only (N-terminal biotin on a linker: ado-ado).
Parameters: key: below the threshold = too weak to quantify, mostly under pKd 3.1 to 4

Sequence of SCRIB_1, Q14160 (Q14160 718-814): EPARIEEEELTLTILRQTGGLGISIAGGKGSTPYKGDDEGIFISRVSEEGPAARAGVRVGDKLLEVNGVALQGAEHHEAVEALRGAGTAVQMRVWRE

Q: With EDPRVEVTQF [SLC22A9, Q8IVM8] as the binder, how does the pKd read?
A: Its pKd is 3.91.

Each binder was assayed against SNX27, Q96L92 (assay: holdup assay). Conditions: plain residues with an end cap or a label only (N-terminal biotin on a linker: ado-ado).
Parameters: key: below the threshold = too weak to quantify, mostly under pKd 3.1 to 4

Q: EDPRVEVTQF [SLC22A9, Q8IVM8] was tested. Which pKd did it give?
A: Its pKd is 5.39.

What follows are binders tested against T3, DLG3_1, Q92796 (assay: holdup assay). Conditions: plain residues with an end cap or a label only (N-terminal biotin on a linker: ado-ado).
Parameters: key: below the threshold = too weak to quantify, mostly under pKd 3.1 to 4

Q: EDPRVEVTQF [SLC22A9, Q8IVM8] was tested. Which pKd did it give?
A: The pKd was “below the threshold”.

The binders below were run against T4, LIN7B, Q9HAP6 (assay: holdup assay). Conditions: plain residues with an end cap or a label only (N-terminal biotin on a linker: ado-ado).
Parameters: key: below the threshold = too weak to quantify, mostly under pKd 3.1 to 4

Q: With EDPRVEVTQF [SLC22A9, Q8IVM8] as the binder, how does the pKd read?
A: Its pKd is 3.83.

These binders were tested against T5, MPDZ_12, O75970 (assay: holdup assay). Conditions: plain residues with an end cap or a label only (N-terminal biotin on a linker: ado-ado).
Parameters: key: below the threshold = too weak to quantify, mostly under pKd 3.1 to 4

Q: EDPRVEVTQF [SLC22A9, Q8IVM8] was tested. Which pKd did it give?
A: Its pKd is “below the threshold”.

The binders below were run against T6, NHERF3_3, Q5T2W1 (assay: holdup assay). Conditions: plain residues with an end cap or a label only (N-terminal biotin on a linker: ado-ado).
Parameters: key: below the threshold = too weak to quantify, mostly under pKd 3.1 to 4

Q: With EDPRVEVTQF [SLC22A9, Q8IVM8] as the binder, how does the pKd read?
A: Its pKd is “below the threshold”.

Each binder was assayed against Inadl_3, Q8NI35 (assay: holdup assay). Conditions: plain residues with an end cap or a label only (N-terminal biotin on a linker: ado-ado).
Parameters: key: below the threshold = too weak to quantify, mostly under pKd 3.1 to 4

Sequence of Inadl_3, Q8NI35 (Q8NI35 359-469): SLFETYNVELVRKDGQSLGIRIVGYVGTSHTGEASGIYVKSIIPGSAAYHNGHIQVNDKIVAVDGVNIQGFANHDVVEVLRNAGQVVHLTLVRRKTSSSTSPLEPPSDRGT

Q: Which pKd does the source give for EDPRVEVTQF [SLC22A9, Q8IVM8] here?
A: The pKd was “below the threshold”.

Each binder was assayed against TJP1_3, Q07157 (assay: holdup assay). Conditions: plain residues with an end cap or a label only (N-terminal biotin on a linker: ado-ado).
Parameters: key: below the threshold = too weak to quantify, mostly under pKd 3.1 to 4

Sequence of TJP1_3, Q07157 (Q07157 416-512): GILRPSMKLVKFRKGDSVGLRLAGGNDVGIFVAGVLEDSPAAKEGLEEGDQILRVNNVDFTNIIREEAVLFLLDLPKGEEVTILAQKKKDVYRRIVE

Q: With EDPRVEVTQF [SLC22A9, Q8IVM8] as the binder, how does the pKd read?
A: Its pKd is “below the threshold”.

The binders below were run against NHERF4_4, Q86UT5 (assay: holdup assay). Conditions: plain residues with an end cap or a label only (N-terminal biotin on a linker: ado-ado).
Parameters: key: below the threshold = too weak to quantify, mostly under pKd 3.1 to 4

Sequence of NHERF4_4, Q86UT5 (Q86UT5 464-550): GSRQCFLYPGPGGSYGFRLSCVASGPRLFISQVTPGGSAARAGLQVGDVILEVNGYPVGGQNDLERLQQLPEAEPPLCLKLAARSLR

Q: With EDPRVEVTQF [SLC22A9, Q8IVM8] as the binder, how does the pKd read?
A: Its pKd is “below the threshold”.

Each binder was assayed against T7, SIPA1L2, Q9P2F8 (assay: holdup assay). Conditions: plain residues with an end cap or a label only (N-terminal biotin on a linker: ado-ado).
Parameters: key: below the threshold = too weak to quantify, mostly under pKd 3.1 to 4

Q: With EDPRVEVTQF [SLC22A9, Q8IVM8] as the binder, how does the pKd read?
A: Its pKd is “below the threshold”.

The binders below were run against DLG1_3, Q12959 (assay: holdup assay). Conditions: plain residues with an end cap or a label only (N-terminal biotin on a linker: ado-ado).
Parameters: key: below the threshold = too weak to quantify, mostly under pKd 3.1 to 4

Sequence of DLG1_3, Q12959 (Q12959 457-571): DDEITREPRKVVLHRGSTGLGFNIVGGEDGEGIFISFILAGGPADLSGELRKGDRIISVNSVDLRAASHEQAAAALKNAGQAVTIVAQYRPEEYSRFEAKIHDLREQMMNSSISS

Q: Which pKd does the source give for EDPRVEVTQF [SLC22A9, Q8IVM8] here?
A: The pKd was “below the threshold”.

Each binder was assayed against FRMPD2_3, Q68DX3 (assay: holdup assay). Conditions: plain residues with an end cap or a label only (N-terminal biotin on a linker: ado-ado).
Parameters: key: below the threshold = too weak to quantify, mostly under pKd 3.1 to 4

Sequence of FRMPD2_3, Q68DX3 (Q68DX3 1073-1166): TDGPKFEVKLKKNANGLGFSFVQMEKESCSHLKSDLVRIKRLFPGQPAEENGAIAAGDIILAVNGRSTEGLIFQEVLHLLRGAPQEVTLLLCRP

Q: Which pKd does the source give for EDPRVEVTQF [SLC22A9, Q8IVM8] here?
A: The pKd was “below the threshold”.

Each binder was assayed against T8, MPDZ_5, O75970 (assay: holdup assay). Conditions: plain residues with an end cap or a label only (N-terminal biotin on a linker: ado-ado).
Parameters: key: below the threshold = too weak to quantify, mostly under pKd 3.1 to 4

Q: For EDPRVEVTQF [SLC22A9, Q8IVM8], which pKd is on record?
A: The pKd was “below the threshold”.

The binders below were run against T9, DFNB31_1, Q9P202 (assay: holdup assay). Conditions: plain residues with an end cap or a label only (N-terminal biotin on a linker: ado-ado).
Parameters: key: below the threshold = too weak to quantify, mostly under pKd 3.1 to 4

Q: EDPRVEVTQF [SLC22A9, Q8IVM8] was tested. Which pKd did it give?
A: The pKd was “below the threshold”.

Each binder was assayed against T10, SNTG2, Q9NY99 (assay: holdup assay). Conditions: plain residues with an end cap or a label only (N-terminal biotin on a linker: ado-ado).
Parameters: key: below the threshold = too weak to quantify, mostly under pKd 3.1 to 4

Q: How did the pKd turn out when EDPRVEVTQF [SLC22A9, Q8IVM8] was run?
A: Its pKd is “below the threshold”.

The binders below were run against T11, PDZRN3_1, Q9UPQ7 (assay: holdup assay). Conditions: plain residues with an end cap or a label only (N-terminal biotin on a linker: ado-ado).
Parameters: key: below the threshold = too weak to quantify, mostly under pKd 3.1 to 4

Q: Which pKd does the source give for EDPRVEVTQF [SLC22A9, Q8IVM8] here?
A: Its pKd is “below the threshold”.

The binders below were run against GRID2IP_1, A4D2P6 (assay: holdup assay). Conditions: plain residues with an end cap or a label only (N-terminal biotin on a linker: ado-ado).
Parameters: key: below the threshold = too weak to quantify, mostly under pKd 3.1 to 4

Sequence of GRID2IP_1, A4D2P6 (A4D2P6 1-87): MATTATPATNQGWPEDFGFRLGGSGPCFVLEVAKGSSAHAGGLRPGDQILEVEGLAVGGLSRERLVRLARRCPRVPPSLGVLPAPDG

Q: With EDPRVEVTQF [SLC22A9, Q8IVM8] as the binder, how does the pKd read?
A: Its pKd is “below the threshold”.

What follows are binders tested against LDB3, O75112 (assay: holdup assay). Conditions: plain residues with an end cap or a label only (N-terminal biotin on a linker: ado-ado).
Parameters: key: below the threshold = too weak to quantify, mostly under pKd 3.1 to 4

Sequence of LDB3, O75112 (O75112 1-94): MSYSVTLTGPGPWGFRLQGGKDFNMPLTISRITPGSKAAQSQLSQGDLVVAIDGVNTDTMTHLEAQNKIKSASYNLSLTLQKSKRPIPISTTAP

Q: For EDPRVEVTQF [SLC22A9, Q8IVM8], which pKd is on record?
A: The pKd was “below the threshold”.

These binders were tested against T12, RAPGEF6, Q8TEU7 (assay: holdup assay). Conditions: plain residues with an end cap or a label only (N-terminal biotin on a linker: ado-ado).
Parameters: key: below the threshold = too weak to quantify, mostly under pKd 3.1 to 4

Q: EDPRVEVTQF [SLC22A9, Q8IVM8] was tested. Which pKd did it give?
A: Its pKd is “below the threshold”.

What follows are binders tested against NHERF4_2, Q86UT5 (assay: holdup assay). Conditions: plain residues with an end cap or a label only (N-terminal biotin on a linker: ado-ado).
Parameters: key: below the threshold = too weak to quantify, mostly under pKd 3.1 to 4

Sequence of NHERF4_2, Q86UT5 (Q86UT5 220-308): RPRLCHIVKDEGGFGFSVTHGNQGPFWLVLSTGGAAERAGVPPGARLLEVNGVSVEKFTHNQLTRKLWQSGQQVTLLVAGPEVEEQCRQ

Q: For EDPRVEVTQF [SLC22A9, Q8IVM8], which pKd is on record?
A: Its pKd is “below the threshold”.
